Data published in patent publication CN117062835A (ONCORIS PONS, dated 2023).

B1: 变体4(V4) (antibody, V domains shown)
VH: EVQLVESGGGVVQPGRSLRLSCAASGFTFSSYVMHWVRQAPGKGLEWVAVISEDGSNKYNADSVKGRFTISRDNSKNTLYLQMNSLRAEDTAVYYCARENVRPYYDFWSGYSSEYYYYGLDVWGQGTTVTVSS
VL: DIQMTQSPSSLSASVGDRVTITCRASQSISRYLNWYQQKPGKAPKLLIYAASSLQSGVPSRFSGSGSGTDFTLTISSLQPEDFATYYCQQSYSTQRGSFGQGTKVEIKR
notes: also called 克隆4
B2: 变体1(V1) (antibody, V domains shown)
VH: EVQLVESGGGVVQPGRSLRLSCAASGFTFSSYDMHWVRQAPGKGLEWVAVISEDGSNKYNADSVKGRFTISRDNSKNTLYLQMNSLRAEDTAVYYCARENVRPYYDFWSGYSSEYYYYGLDVWGQGTTVTVS
VL: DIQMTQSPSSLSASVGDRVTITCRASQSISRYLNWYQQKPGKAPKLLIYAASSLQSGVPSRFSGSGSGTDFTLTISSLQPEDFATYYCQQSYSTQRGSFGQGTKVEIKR

Tests used:
加His标签的重组人类CD163(R&D …) [1] = biological target: T1, 加His标签的重组人类CD163(R&D Systems，编号1607-CD-050)蛋白 (human, UniProt Q86VB7 46-1050); assay: ELISA EC50 ratio; lower end of the range, tied to V4 through the highest EC50 of Table 7
T1 construct: Bought recombinant protein coated on ELISA plates; also called 重组CD163蛋白; huCD163; not shown: His tag

人类CD163蛋白(生物素化) = biological target: T2, 人类CD163蛋白(生物素化) (human, UniProt Q86VB7 46-1050, limits assumed, biotinylated (sites not given)); assay: BLI, b-huCD163 on SA biosensor, four antibody concentrations
T2 construct: also called b-huCD163; 生物素标记的人类CD163

加His标签的重组人类CD163(R&D …) [2] = biological target: T1, 加His标签的重组人类CD163(R&D …); assay: ELISA EC50 ratio; upper end of the range, tied to V1 through the lowest EC50 of Table 7

T1 sequence (Q86VB7 46-1050 limits assumed): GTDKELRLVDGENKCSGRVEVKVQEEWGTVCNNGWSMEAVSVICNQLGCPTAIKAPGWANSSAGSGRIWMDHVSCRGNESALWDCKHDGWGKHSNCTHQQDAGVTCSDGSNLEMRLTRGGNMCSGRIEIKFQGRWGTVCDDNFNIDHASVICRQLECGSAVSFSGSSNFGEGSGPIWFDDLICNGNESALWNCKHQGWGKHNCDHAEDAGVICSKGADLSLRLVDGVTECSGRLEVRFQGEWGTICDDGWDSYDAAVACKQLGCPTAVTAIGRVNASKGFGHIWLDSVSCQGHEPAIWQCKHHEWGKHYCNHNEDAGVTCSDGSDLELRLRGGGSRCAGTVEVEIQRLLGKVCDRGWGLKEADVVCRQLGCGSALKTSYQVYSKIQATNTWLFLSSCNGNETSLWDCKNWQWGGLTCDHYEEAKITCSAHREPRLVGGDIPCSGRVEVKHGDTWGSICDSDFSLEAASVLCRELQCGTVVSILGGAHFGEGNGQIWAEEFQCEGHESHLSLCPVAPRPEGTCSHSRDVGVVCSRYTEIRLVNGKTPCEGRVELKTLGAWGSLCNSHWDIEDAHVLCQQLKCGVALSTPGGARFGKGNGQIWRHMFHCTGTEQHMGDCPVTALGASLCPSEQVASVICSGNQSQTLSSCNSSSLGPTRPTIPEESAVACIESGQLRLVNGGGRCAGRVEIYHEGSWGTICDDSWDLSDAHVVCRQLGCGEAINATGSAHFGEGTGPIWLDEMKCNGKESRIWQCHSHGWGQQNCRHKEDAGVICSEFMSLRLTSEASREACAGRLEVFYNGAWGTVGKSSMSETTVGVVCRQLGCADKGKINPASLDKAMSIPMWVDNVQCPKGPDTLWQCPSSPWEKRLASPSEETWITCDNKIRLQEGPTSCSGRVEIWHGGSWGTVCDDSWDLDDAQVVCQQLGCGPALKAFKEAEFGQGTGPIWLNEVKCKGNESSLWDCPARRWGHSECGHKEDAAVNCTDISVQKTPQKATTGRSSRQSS
T2 sequence (Q86VB7 46-1050 limits assumed): as above

Binder	fold stronger binding than AB101 parental antibody (加His标签的重组人类CD163(R&D …) [1])	fold increase of affinity against AB101 parental Ab (人类CD163蛋白(生物素化))	fold stronger binding than AB101 parental antibody (加His标签的重组人类CD163(R&D …) [2])
B1	27 fold	~3760 fold	
B2			45 fold
